# In patent publication US20160083733A1, “NOVEL TREATMENT OF METABOLIC DISEASES” (UNIVERSITY OF BREMEN, priority 2013, published 2016):
# Legend:
# [1] = tested on: INS-1E cells; assay: Apoptotic markers, cytochrome c release and PDX1 in INS-1E cells under diabetogenic conditions; type: cell-based, rat; conditions: 33.3 mM glucose for 48 h, overexpression of dnMST1
# Text: (§1) Human islets were isolated from twenty pancreases of healthy organ donors and from five with T2D at the University of Illinois at Chicago or Lille University and cultured on extracellular matrix (ECM) coated dishes (Novamed, Jerusalem, Israel) as described previously (Schulthess et al., Cell. Metab. 9 (2009) 125-139). Islet purity was greater than 95% as judged by dithizone staining (if this degree of purity was not achieved by routine isolation, islets were handpicked). Islets from MST1^−/− mice and their WT littermates were isolated as described previously (Schulthess et al., Cell. Metab. 9 (2009) 125-139). […]
# At the end of the incubation periods, islets and INS1E cells were washed in ice-cold PBS and lysed in lysis buffer containing 20 mM Tris acetate, 0.27 M sucrose, 1 mM EDTA, 1 mM EGTA, 50 mM NaF, 1% Triton X-100, 5 mM sodium pyrophosphate and 10 mM β-glycerophosphate. […] Protein concentrations were determined with the BCA protein assay (Pierce). […] Membrane was developed using a chemiluminescence assay system (Pierce) and analyzed using DocIT®LS image acquisition 6.6a (UVP BioImaging Systems, Upland, Calif., USA). […]
# [2] = tested on: PDX1; assay: PDX1 protein level, degradation and ubiquitination in HEK293 cells co-transfected with MST1; type: cell-based, mouse; conditions: co-transfection with PDX1 in HEK293 cells
# Text: pCMV-myc-MST1 and kinase-dead (MST1-K59; dnMST1) are described in Yamamoto et al., J. Clin. Invest. 111 (2003), 1463-1474. Mouse pB.RSV.PDX1-GFP is described in Kawamori et al., Diabetes 52 (2003) 2896-2904. pcDNA3 Myr-HA Akt1, HA-Ubiquitin and pCDNA3 Jnk1a1 (apf)(dn-JNK) plasmids were obtained from Addgene (Cambridge, Mass.). Mouse PDX1 mutants (T11, T126, T152, T155, T214 and T231) in pCGIG5 vector were generated by site-directed mutagenesis as described previously (Frogne et al., 7 (2012), e35233). All mutations were verified by sequencing. To make bacterial expression plasmids for PDX1 mutants, the complete mouse PDX1 CDS (wild type and mutants) has been amplified by PCR using a specific set of primers from pCGIG5 plasmids and cloned into a pGEX-6P-1 bacterial expression vector. The rat insulin driven luciferase vector (RIP-Luc) was constructed by subcloning a 700 by fragment containing −660 bp of the rat 2 insulin promoter into a pMCS-Green-Renilla-Luc vector (Thermo Scientific). pCMV-Red firefly Luc vector was obtained from Thermo Scientific.
# HEK293 cells were cultured in 10-cm cell culture dishes and transfected with HA-ubiquitin, PDX1 and MST1 expression plasmids for 48 h. For ubiquitination in human islets, 5000 islets per condition were transfected with ubiquitin plasmid. After 24 h, islets were infected with Ad-GFP or Ad-MST1 for 6 h and kept for another 48 h. […]
# [3] = tested on: human islets; assay: MST1 overexpression (Ad-MST1)-induced apoptosis in human islets; type: cell-based; conditions: Ad-MST1 48 h
# Text: as §1
# Pancreatic tissues were processed as previously described (Shu et al., Diabetes 57 (2007), 645-53). […] Slides were mounted with Vectashield with 4′6-diamidino-2-phenylindole (DAPI) (Vector Labs). β-cell apoptosis for mouse sections or primary islets cultured on ECM dishes was analyzed by the terminal deoxynucleotidyl transferase-mediated dUTP nick-end labeling (TUNEL) technique according to the manufacturer's instructions (In Situ Cell Death Detection Kit, TMR red; Roche) and double stained for insulin. Fluorescence was analyzed using a Nikon MEA53200 (Nikon GmbH, Dusseldorf, Germany) microscope and images were acquired using NIS-Elements software (Nikon). […]
Molecule,glucose-induced caspase-3 and PARP cleavage [1],PDX1 level [2],MST1-induced increase in Bim and subsequent caspase-3 cleavage [3]
"dnMST1: kinase-dead, dominant negative MST1 mutant (K59R) expressed from plasmid (protein, UniProt Q13043 1-487, looked up, variant K59R) Serine/threonine-protein …: METVQLRNPPRRQLKKLDEDSLTKQPEEVFDVLEKLGEGSYGSVYKAIHKETGQIVAIRQVPVESDLQEIIKEISIMQQCDSPHVVKYYGSYFKNTDLWIVMEYCGAGSVSDIIRLRNKTLTEDEIATILQSTLKGLEYLHFMRKIHRDIKAGNILLNTEGHAKLADFGVAGQLTDTMAKRNTVIGTPFWMAPEVIQEIGYNCVADIWSLGITAIEMAEGKPPYADIHPMRAIFMIPTNPPPTFRKPELWSDNFTDFVKQCLVKSPEQRATATQLLQHPFVRSAKGVSILRDLINEAMDVKLKRQESQQREVDQDDEENSEEDEMDSGTMVRAVGDEMGTVRVASTMTDGANTMIEHDDTLPSQLGTMVINAEDEEEEGTMKRRDETMQPAKPSFLEYFEQKEKENQINSFGKSVPGPLKNSSDWKIPQDGDYEFLKSWTVEDLQKRLLALDPMMEQEIEEIRQKYQSKRQPILDAIEAKKRRQQNF",completely inhibited,no effect,–
"dnJNK1: dominant negative mutant of JNK1 expressed from plasmid pCDNA3 Jnk1a1 (apf) (protein, UniProt P45983 1-427, looked up, variant T183A Y185F) Mitogen-activated protein …: MSRSKRDNNFYSVEIGDSTFTVLKRYQNLKPIGSGAQGIVCAAYDAILERNVAIKKLSRPFQNQTHAKRAYRELVLMKCVNHKNIIGLLNVFTPQKSLEEFQDVYIVMELMDANLCQVIQMELDHERMSYLLYQMLCGIKHLHSAGIIHRDLKPSNIVVKSDCTLKILDFGLARTAGTSFMMAPFVVTRYYRAPEVILGMGYKENVDLWSVGCIMGEMVCHKILFPGRDYIDQWNKVIEQLGTPCPEFMKKLQPTVRTYVENRPKYAGYSFEKLFPDVLFPADSEHNKLKASQARDLLSKMLVIDASKRISVDEALQHPYINVWYDPSEAEAPPPKIPDKQLDEREHTIEEWKELIYKEVMDLEERTKNGVIRGQPSPLGAAVINGSQHPSSSSSVNDVSSMSTDPTLASDTDSSLEAAAGPLGCCR",–,–,prevented
